# T1: NFATc4
# T1 sequence (Q14934 1-902, species assumed, looked up): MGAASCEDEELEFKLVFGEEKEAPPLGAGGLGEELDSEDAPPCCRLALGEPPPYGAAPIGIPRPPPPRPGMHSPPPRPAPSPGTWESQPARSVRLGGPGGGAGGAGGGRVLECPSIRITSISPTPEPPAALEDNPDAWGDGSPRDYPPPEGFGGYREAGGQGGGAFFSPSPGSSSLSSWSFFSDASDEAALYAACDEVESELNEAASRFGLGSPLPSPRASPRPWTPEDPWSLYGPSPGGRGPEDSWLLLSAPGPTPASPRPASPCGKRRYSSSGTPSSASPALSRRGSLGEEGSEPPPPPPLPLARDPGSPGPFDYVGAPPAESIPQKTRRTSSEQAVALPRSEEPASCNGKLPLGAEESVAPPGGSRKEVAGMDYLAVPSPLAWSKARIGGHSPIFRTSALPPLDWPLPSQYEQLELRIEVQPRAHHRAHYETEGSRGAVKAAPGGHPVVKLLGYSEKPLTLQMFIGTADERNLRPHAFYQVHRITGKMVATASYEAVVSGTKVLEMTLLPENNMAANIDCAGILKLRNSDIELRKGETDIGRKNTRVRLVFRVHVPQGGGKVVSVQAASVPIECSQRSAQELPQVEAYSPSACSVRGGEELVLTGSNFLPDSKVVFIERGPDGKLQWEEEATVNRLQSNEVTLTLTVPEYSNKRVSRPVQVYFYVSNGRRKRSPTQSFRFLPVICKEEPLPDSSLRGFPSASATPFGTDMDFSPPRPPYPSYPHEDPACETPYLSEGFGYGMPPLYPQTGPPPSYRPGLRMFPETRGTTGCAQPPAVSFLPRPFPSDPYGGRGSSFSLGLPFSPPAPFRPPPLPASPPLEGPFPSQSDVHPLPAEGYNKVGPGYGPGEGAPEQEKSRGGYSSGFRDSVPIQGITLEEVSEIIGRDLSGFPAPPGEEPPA
# B1: murine IRAK-1 (endogenous, wild type BMDM cells) (protein)
# chain: MAGGPGPGEPVVPGAQHFLYEVPPWVMCRFYKVMDALEPADWCQFAALIVRDQTELRLCERSEQRTASVLWPWINRNARVADLVHILTHLQLLRARDIITAWHPPAPVVPPSTAAPRPSSISAGSEAGDWSPRKLQSSASTFLSPAFPGSQTHSESELLQVPLPVSLGPPLPSSAPSSTKSSPESPVSGLQRAHPSPFCWPFCEISQGTCNFSEELRIGEGGFGCVYRAVMRNTTYAVKRLKEEADLEWTMVKQSFLTEVEQLSRFRHPNIVDFAGYCAESGLYCLVYGFLPNGSLEDQLHLQTQACSPLSWPQRLDILLGTARAIQFLHQDSPSLIHGDIKSSNVLLDERLMPKLGDFGLARFSRFAGAKASQSSTVARTSTVRGTLAYLPEEYIKTGRLAVDTDTFSFGVVILETLAGQRAVRTQGAKTKYLKDLIEDEAEEAGVTLKSTQPTLWVGVATDAWAAPIAAQIYKKHLDSRPGPCPPQLGLALAQLACCCMHRRAKKRPPMTQVYKRLEGLQAGPPWELEVAGHGSPSPQENSYMSTTGSAQSGDEPWQPLVVTTRAPAQAAQQLQRSPNQPVESDESVPGLSATLHSWHLTPGSHPSPASFREASCTQGGTTRESSVRSSPGFQPTTMEGSPTGSSSLLSSEPPQIIINPARQKMVQKLALYEEGVLDSLQLLSSGFFPGLDLEPEKSQGPEESDEFQS
# Columns and labels:
# NFATc4 = molecular target: T1, NFATc4
# [1] = molecular target: Rac1 (murine BMDM cells), P63001
# [2] = molecular target: Tau protein (in bone marrow derived macrophages), P10637
# Tau protein (in bone marrow derived macrophages), P10637, sequence (P10637 whole entry, looked up): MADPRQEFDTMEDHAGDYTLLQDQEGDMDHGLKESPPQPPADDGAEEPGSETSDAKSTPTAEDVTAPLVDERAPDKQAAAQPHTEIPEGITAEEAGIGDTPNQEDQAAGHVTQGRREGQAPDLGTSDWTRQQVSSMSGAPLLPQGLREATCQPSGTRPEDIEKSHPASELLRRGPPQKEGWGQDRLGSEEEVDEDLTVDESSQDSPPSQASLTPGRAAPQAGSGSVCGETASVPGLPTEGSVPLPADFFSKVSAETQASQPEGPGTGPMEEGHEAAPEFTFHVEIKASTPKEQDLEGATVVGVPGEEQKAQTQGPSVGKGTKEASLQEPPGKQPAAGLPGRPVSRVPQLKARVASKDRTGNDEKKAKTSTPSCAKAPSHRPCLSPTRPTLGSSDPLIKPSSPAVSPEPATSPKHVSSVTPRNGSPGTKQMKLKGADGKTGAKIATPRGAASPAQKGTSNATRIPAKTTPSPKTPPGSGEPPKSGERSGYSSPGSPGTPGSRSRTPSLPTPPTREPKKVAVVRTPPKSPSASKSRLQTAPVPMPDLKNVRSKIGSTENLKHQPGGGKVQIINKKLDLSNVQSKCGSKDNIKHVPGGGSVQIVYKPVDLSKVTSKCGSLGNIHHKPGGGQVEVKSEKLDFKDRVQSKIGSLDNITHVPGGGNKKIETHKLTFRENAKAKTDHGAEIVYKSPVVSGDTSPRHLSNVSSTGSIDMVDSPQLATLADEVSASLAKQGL
protein,measurement,setting,value
B1,phosphorylated NFATc4 (p-NFATc4) by Western blot,NFATc4,"p-NFATc4 was found in the wild type cells (Panel B, lanes 1-3) whereas significantly less was found in the IRAK-1 deficient cells"
same,Rac1 activity (PBD pull down assay) after LPS treatment for 5 min,[1],relative Rac1 activity is significantly higher in LPS-induced wild type macrophages and not in IRAK-1 deficient macrophages
same,phosphorylated Tau (PHF-Tau) by Western blot after BLP (Pam3CSK4) treatment,[2],"stimulation of wild type cells led to increased Tau phosphorylation. In contrast, Tau phosphorylation is ablated in IRAK-1 deficient cells"
